Test results published in patent publication US6191256A, “Recombinant factor VIII binding peptides” (Bayer Corporation, priority 1998, dated 2001).

Key:
rFVIII [1] = target: T1, rFVIII (Homo sapiens, UniProt P00451); experiment: confirmatory binding assay in filtration plate format using 14C-rFVIII; conditions: Table 4; for Total dpm / beads % total / beads dpm: 14C-rFVIII 30 nM; for 0.5M CaCl2 % total / 2% acetic acid % total / 2% acetic acid dpm / 0.5M CaCl2 dpm: 14C-rFVIII 30 nM in PPF, 5 mg beads; for 0.5M CaCl2 dpm: 5.0 × 10^15 dpm/mole, 5° C.; for beads % total / beads dpm: remaining on beads after washes
T1 sequence (P00451 20-2351): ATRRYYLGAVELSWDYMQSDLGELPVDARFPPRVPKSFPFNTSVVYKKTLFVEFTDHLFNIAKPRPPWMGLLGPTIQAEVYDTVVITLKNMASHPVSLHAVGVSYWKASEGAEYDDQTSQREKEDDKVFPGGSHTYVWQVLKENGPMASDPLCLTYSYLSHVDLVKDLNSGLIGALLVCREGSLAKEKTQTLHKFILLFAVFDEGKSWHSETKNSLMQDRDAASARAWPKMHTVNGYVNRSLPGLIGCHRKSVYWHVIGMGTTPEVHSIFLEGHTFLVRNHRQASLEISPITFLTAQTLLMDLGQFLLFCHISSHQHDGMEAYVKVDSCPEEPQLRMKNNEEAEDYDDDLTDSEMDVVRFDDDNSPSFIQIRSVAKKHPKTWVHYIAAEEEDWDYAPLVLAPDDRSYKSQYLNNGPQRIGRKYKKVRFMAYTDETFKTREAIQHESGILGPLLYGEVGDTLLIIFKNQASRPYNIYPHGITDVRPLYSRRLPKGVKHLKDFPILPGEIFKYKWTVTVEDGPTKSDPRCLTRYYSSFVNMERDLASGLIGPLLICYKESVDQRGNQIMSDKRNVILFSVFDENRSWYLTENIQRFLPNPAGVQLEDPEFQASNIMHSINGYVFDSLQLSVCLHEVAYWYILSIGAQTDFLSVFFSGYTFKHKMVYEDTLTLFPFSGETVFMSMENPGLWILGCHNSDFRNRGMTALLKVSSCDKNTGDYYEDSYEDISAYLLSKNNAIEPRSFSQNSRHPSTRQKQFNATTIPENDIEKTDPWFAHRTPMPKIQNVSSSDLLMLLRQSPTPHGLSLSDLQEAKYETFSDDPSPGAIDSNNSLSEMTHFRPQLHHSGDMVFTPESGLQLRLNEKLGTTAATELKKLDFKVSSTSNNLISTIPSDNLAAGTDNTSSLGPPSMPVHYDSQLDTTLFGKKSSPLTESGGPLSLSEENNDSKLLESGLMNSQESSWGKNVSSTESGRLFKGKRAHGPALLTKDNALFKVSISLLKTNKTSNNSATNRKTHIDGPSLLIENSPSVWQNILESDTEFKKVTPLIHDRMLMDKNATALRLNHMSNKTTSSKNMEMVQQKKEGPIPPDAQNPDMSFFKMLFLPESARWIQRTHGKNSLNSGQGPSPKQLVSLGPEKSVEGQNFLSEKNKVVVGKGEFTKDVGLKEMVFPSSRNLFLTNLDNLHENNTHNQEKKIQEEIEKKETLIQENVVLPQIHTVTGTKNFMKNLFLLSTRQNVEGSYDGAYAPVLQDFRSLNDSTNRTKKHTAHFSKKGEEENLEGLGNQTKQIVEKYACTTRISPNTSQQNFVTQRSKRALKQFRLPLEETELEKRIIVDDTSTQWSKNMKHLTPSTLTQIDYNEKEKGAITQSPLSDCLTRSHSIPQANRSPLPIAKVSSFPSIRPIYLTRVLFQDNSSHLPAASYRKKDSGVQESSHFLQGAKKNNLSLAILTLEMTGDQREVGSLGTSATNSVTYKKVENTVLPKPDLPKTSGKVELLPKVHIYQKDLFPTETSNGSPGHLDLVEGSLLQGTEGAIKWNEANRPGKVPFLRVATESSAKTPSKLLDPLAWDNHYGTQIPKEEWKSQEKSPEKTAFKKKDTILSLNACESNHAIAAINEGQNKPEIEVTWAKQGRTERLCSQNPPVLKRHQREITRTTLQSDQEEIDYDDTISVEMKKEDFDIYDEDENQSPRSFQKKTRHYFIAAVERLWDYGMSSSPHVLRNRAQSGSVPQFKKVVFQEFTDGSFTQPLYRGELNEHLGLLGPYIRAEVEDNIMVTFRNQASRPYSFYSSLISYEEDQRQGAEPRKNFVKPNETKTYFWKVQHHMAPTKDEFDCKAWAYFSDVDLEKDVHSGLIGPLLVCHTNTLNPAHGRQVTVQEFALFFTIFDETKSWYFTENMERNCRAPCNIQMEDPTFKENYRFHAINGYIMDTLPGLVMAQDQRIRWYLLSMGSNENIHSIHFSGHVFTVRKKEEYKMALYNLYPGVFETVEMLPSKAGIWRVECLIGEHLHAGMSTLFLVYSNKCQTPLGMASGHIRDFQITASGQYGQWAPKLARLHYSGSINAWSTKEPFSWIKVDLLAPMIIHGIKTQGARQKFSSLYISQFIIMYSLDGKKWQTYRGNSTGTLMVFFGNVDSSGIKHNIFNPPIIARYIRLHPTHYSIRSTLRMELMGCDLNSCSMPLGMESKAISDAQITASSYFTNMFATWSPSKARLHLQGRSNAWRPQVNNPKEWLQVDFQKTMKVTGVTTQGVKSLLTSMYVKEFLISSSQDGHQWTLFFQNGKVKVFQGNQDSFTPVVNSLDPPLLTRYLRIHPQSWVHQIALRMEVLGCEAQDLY
T1 sequence (P00451 1668-2351 limits assumed): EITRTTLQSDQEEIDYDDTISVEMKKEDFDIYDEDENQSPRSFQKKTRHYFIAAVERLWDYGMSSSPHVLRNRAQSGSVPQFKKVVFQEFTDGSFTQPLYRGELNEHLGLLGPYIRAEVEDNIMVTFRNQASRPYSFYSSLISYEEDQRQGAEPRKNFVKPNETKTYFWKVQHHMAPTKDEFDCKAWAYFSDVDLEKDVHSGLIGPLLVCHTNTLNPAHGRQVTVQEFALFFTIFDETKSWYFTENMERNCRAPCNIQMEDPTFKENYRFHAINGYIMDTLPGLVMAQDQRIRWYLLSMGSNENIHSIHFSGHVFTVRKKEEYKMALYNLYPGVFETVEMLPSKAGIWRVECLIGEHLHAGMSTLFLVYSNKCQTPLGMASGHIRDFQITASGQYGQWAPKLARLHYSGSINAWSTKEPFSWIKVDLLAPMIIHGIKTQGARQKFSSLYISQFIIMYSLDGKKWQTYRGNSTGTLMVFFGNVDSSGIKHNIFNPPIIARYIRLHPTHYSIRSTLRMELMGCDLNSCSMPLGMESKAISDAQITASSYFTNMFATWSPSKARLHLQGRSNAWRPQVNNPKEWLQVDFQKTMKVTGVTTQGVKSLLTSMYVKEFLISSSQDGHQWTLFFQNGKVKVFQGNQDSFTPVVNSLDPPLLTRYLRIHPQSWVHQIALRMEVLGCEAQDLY
Protocol: Confirmatory binding assays were performed in a filtration plate format using individual peptide sequences synthesized directly onto the TOYOPEARL AF amino 650 M resin, at a final substitution density of 0.1 mmole/g resin. A slurry of each individual peptide sequence was prepared using deionized water. A 100 μL volume of beads (corresponding to 5 mg) was loaded into each well of the filtration plate (MULTISCREEN Assay System, Millipore, Bedford, Mass.), in triplicate for each peptide sequence. Beads were washed with 20% ethanol and incubated overnight with equilibration buffer (20 mM imidazole, 10 mM
CaCl2, 0.105 M NaCl, pH 6.9). A 100 μL aliquot of ^14 C-rFVIII diluted in neat PPF to a final concentration of 20-30 nM was loaded into each well and incubated for 1 hour at 5° C. Filtrate (unbound ^14 C-rFVIII) was collected into a microtiter plate and transferred to liquid scintillation vials for dpm counting. Beads were washed sequentially with: 100 μL of equilibration buffer for 15 minutes, 200 μL of 0.5 M CaCl2 (in equilibration buffer), 200 μL of 1.0 M CaCl2 (in equilibration buffer), and 200 uL of 2% by volume glacial acetic acid in water, for 1 hour each at 5° C. Scintillation counting on the unbound ^14 C-rFVIII (plus equilibration buffer wash), salt and acid washes, as well as on the beads was then performed and the overall mass balance calculated.
Beads presenting the appropriate peptide sequence on the surface were placed in the filtration plate wells and incubated sequentially with equilibration buffer, ^14 C-rFVIII in PPF, equilibration buffer, 0.5 M CaCl2 wash, 1.0 M CaCl2 wash and 2% acetic acid wash. After each incubation, filtrate was collected in microtiter plates, and dpm counted on each
In Table 3, the ^14 C-rFVIII was loaded at 20 nM (in PPF) and the radiolabeling yield was at 3.0×10^15 dpm/mole. In Table 4, the ^14 C-rFVIII was loaded at 30 nM (in PPF) and the radiolabeling yield was at 5.0×10^15 dpm/mole.

rFVIII [2] = target: T1, rFVIII; experiment: rFVIII activity recovery from peptide columns by chromogenic substrate assay (COATEST); format: biochemical; conditions: for 0.5M CaCl2 IU / 2% acetic acid % total / 2% acetic acid IU / Flow through % total / Total IU / 0.5M CaCl2 % total / Flow through IU: Table 8; for 0.5M CaCl2 % total: activity recovery; for Flow through IU: rFVIII activity in fraction; for Activity results % total: Table 9, 0.5M CaCl2 fraction
Protocol: (§1) Immunoassay on rFVIII using a sandwich capture ELISA for the light chain and activity assay using a chromogenic substrate (COATEST Factor VIII kit from diaPharma, Franklin, Ohio) were performed on a BIOMEK® automated liquid handling system from Beckman Instruments (Brea, Calif.). The monoclonal antibody for rFVIII light chain (known as C7F7), the ELISA assay standard (lot A70K019), and the control for the activity assay (lot A70A001 @ 140 IU/mL) were from the Bayer Corporation (Berkeley, Calif.). The standard for the activity assay was at 11.2 IU/mL (Bayer, Clayton, N.C.), calibrated against the MEGA 1 standard, which is a working standard used by American manufacturers for measuring factor VIII activity (21).
(§2) Additional confirmatory binding assay and performance of the discovered binding peptides in terms of total rFVIII and activity recovery was performed in a column chromatographic format on a microbore HPLC. The resins were packed into 0.4×5 cm columns (Thomson, Springfield, Va.) and tested on the MICHROM HPLC system (Michrom BioResources, Auburn, Calif.). The elution program for the trials utilized the following method. The column was pre-equilibrated with equilibration buffer (as above). A 1 mL aliquot of 1:10 PPF followed by 1 mL of rFVIII (10,000 ng) in 1:10 PPF were injected and allowed sufficient time to flow through the column using equilibration buffer. The column was then washed with step elutions of 0.5 M and 1.0 M CaCl2 in equilibration buffer. The column was exposed to equilibration buffer. Remaining protein was eluted with 2% by volume glacial acetic acid in water. Columns were kept at 5° C. during the chromatographic runs. For each 1 mL injection (equilibration buffer, 1:10 PPF and 10,000 ng rFVIII in 1:10 PPF), the chromatographic cycle was run for 45 minutes (injection, flow through, 0.5 M CaCl2, 1.0 M CaCl2, equilibration buffer, 2% acetic acid, equilibration buffer).
(§3) A Gilson FC204 fraction collector at the HPLC outlet collected individual eluates for further analysis. Each collection tube had 100 μL hSA added to it to stabilize the rFVIII. Fractions collected from the 2% acetic acid eluates were neutralized with 2 M Tris, pH 10.5 to bring the pH to neutrality. The fractions were analyzed for total protein by the integration of the absorbance at 280 nm, for rFVIII by immunoassay (sandwich capture ELISA), and for rFVIII activity by a chromogenic substrate assay.
Tables 7 and 8 list the sequences for which activity recovery was determined by a chromogenic substrate assay (COASTEST kit, diaPharma, Franklin, Ohio). Chromatographc conditions are the same as described above for the results from Tables 5 and 6. It can be

rFVIII [3] = target: T1, rFVIII; experiment: column format binding assay, rFVIII mass per fraction by sandwich capture ELISA for the light chain; conditions: for 0.5M CaCl2 ng / 0.5M CaCl2 % total / 2% acetic acid % total / 2% acetic acid ng / Flow through % total / Total ng / Flow through ng: Table 6; for Flow through ng: 10,000 ng rFVIII in 1:10 PPF injected, 5° C.; for ELISA results % total: Table 9, 0.5M CaCl2 fraction
Protocol: as §1, §2, §3
Tables 5 and 6 present the results from the additional confirmatory binding assays using the column format. The chromatography method was run by injecting the samples at a flow rate of 865 μL/min (413 cm/hr). In order to provide a 10 minute residence time of sample in the column the flow was decreased to 17 μL/min (10 cm/hr) upon injection.
Following the incubation, the flow was set at 865 μL/min (413 cm/hr) for the step clutions of 0.5 M CaCl2, 1.0 M CaCl2, and 2% acetic acid. Results are expressed in terms of the total mass of rFVIII in each fraction, as determined by the sandwich capture ELISA assay for the rFVIII light chain. […] A control using a non-binding peptide sequence (IGF) is also shown for comparison--in this case, 95% of the rFVIII loaded to the column was collected in the flow through fraction. Additional controls with no

10 (AFVRSL) [compound 10]
Total dpm (rFVIII [1]): 3764 dpm
0.5M CaCl2 % total (rFVIII [1]): 93%
2% acetic acid % total (rFVIII [1]): 5%
2% acetic acid dpm (rFVIII [1]): 188 dpm
0.5M CaCl2 dpm (rFVIII [1]): 3491 dpm
beads % total (rFVIII [1]): 2%
beads dpm (rFVIII [1]): 85 dpm
0.5M CaCl2 IU (rFVIII [2]): 53.1 IU
2% acetic acid % total (rFVIII [2]): 0%
2% acetic acid IU (rFVIII [2]): 0.1 IU
Flow through % total (rFVIII [2]): 0%
Total IU (rFVIII [2]): 54.3 IU
0.5M CaCl2 % total (rFVIII [2]): 98%
Flow through IU (rFVIII [2]): 0.0 IU
Activity results % total (rFVIII [2]): 98%
0.5M CaCl2 ng (rFVIII [3]): 11023 ng
0.5M CaCl2 % total (rFVIII [3]): 98%
2% acetic acid % total (rFVIII [3]): 1%
2% acetic acid ng (rFVIII [3]): 135 ng
Flow through % total (rFVIII [3]): 0%
Total ng (rFVIII [3]): 11272 ng
Flow through ng (rFVIII [3]): 0 ng
ELISA results % total (rFVIII [3]): 98%

11 (NAIFQW) [compound 11]
Total dpm (rFVIII [1]): 2208 dpm
0.5M CaCl2 % total (rFVIII [1]): 48%
2% acetic acid % total (rFVIII [1]): 23%
2% acetic acid dpm (rFVIII [1]): 518 dpm
0.5M CaCl2 dpm (rFVIII [1]): 1049 dpm
beads % total (rFVIII [1]): 29%
beads dpm (rFVIII [1]): 641 dpm
0.5M CaCl2 IU (rFVIII [2]): 54.4 IU
2% acetic acid % total (rFVIII [2]): 0%
2% acetic acid IU (rFVIII [2]): 0.0 IU
Flow through % total (rFVIII [2]): 4%
Total IU (rFVIII [2]): 60.4 IU
0.5M CaCl2 % total (rFVIII [2]): 90%
Flow through IU (rFVIII [2]): 2.5 IU
Activity results % total (rFVIII [2]): 90%
0.5M CaCl2 ng (rFVIII [3]): 7481 ng
0.5M CaCl2 % total (rFVIII [3]): 78%
2% acetic acid % total (rFVIII [3]): 11%
2% acetic acid ng (rFVIII [3]): 1069 ng
Flow through % total (rFVIII [3]): 7%
Total ng (rFVIII [3]): 9641 ng
Flow through ng (rFVIII [3]): 639 ng
ELISA results % total (rFVIII [3]): 78%

12 (QRLIQF) [compound 12]
Total dpm (rFVIII [1]): 3557 dpm
0.5M CaCl2 % total (rFVIII [1]): 90%
2% acetic acid % total (rFVIII [1]): 8%
2% acetic acid dpm (rFVIII [1]): 271 dpm
0.5M CaCl2 dpm (rFVIII [1]): 3191 dpm
beads % total (rFVIII [1]): 3%
beads dpm (rFVIII [1]): 95 dpm
0.5M CaCl2 IU (rFVIII [2]): 45.1 IU
2% acetic acid % total (rFVIII [2]): 0%
2% acetic acid IU (rFVIII [2]): 0.08 IU
Flow through % total (rFVIII [2]): 0%
Total IU (rFVIII [2]): 46.6 IU
0.5M CaCl2 % total (rFVIII [2]): 97%
Flow through IU (rFVIII [2]): 0.0 IU
Activity results % total (rFVIII [2]): 97%
0.5M CaCl2 ng (rFVIII [3]): 9223 ng
0.5M CaCl2 % total (rFVIII [3]): 96%
2% acetic acid % total (rFVIII [3]): 2%
2% acetic acid ng (rFVIII [3]): 188 ng
Flow through % total (rFVIII [3]): 0%
Total ng (rFVIII [3]): 9579 ng
Flow through ng (rFVIII [3]): 0 ng
ELISA results % total (rFVIII [3]): 96%

13 (KAQETW) [compound 13]
Total dpm (rFVIII [1]): 4096 dpm
0.5M CaCl2 % total (rFVIII [1]): 95%
2% acetic acid % total (rFVIII [1]): 3%
2% acetic acid dpm (rFVIII [1]): 135 dpm
0.5M CaCl2 dpm (rFVIII [1]): 3884 dpm
beads % total (rFVIII [1]): 2%
beads dpm (rFVIII [1]): 77 dpm
0.5M CaCl2 IU (rFVIII [2]): 48.3 IU
2% acetic acid % total (rFVIII [2]): 0%
2% acetic acid IU (rFVIII [2]): 0.09 IU
Flow through % total (rFVIII [2]): 2%
Total IU (rFVIII [2]): 50.3 IU
0.5M CaCl2 % total (rFVIII [2]): 96%
Flow through IU (rFVIII [2]): 0.8 IU
Activity results % total (rFVIII [2]): 96%
0.5M CaCl2 ng (rFVIII [3]): 8018 ng
0.5M CaCl2 % total (rFVIII [3]): 90%
2% acetic acid % total (rFVIII [3]): 1%
2% acetic acid ng (rFVIII [3]): 87 ng
Flow through % total (rFVIII [3]): 7%
Total ng (rFVIII [3]): 8863 ng
Flow through ng (rFVIII [3]): 641 ng
ELISA results % total (rFVIII [3]): 90%

14 (EPRVIG) [compound 14]
Total dpm (rFVIII [1]): 2184 dpm
0.5M CaCl2 % total (rFVIII [1]): 91%
2% acetic acid % total (rFVIII [1]): 6%
2% acetic acid dpm (rFVIII [1]): 130 dpm
0.5M CaCl2 dpm (rFVIII [1]): 1994 dpm
beads % total (rFVIII [1]): 3%
beads dpm (rFVIII [1]): 60 dpm
0.5M CaCl2 IU (rFVIII [2]): 14.7 IU
2% acetic acid % total (rFVIII [2]): 0%
2% acetic acid IU (rFVIII [2]): 0.00 IU
Flow through % total (rFVIII [2]): 73%
Total IU (rFVIII [2]): 58.6 IU
0.5M CaCl2 % total (rFVIII [2]): 25%
Flow through IU (rFVIII [2]): 42.9 IU
Activity results % total (rFVIII [2]): 25%
0.5M CaCl2 ng (rFVIII [3]): 2850 ng
0.5M CaCl2 % total (rFVIII [3]): 32%
2% acetic acid % total (rFVIII [3]): 1%
2% acetic acid ng (rFVIII [3]): 75 ng
Flow through % total (rFVIII [3]): 66%
Total ng (rFVIII [3]): 8851 ng
Flow through ng (rFVIII [3]): 5828 ng
ELISA results % total (rFVIII [3]): 32%
